Molecular target: M2 muscarinic acetylcholine receptor, endogenous, canine atrium (canine)
Test: cell-based or functional assay

| vagal-induced ERP shortening in the PLA, 3 days after minigene delivery (Gαi2ctp dogs vs. GαRp control dogs) [ms] | vagal-induced ERP shortening in the PLA, Gαo1ctp minigene given together with Gαi2ctp minigene (vs. Gαi2ctp alone) [ms] | Substance |
| --- | --- | --- |
| 19.5 |  | Gαi2 C-terminal peptide expressed from a pFLAG CMV6a minigene (FLAG-tagged Gαi2ctp) |
|  | 2.8 | Gαo1 C-terminal peptide expressed from a pFLAG CMV6a minigene (Gαo1ctp) |
